Reference: paper PMC9789309

Target: ACE2, membrane-anchored, endogenously expressed on VeroE6 cells (African green monkey (endogenous in VeroE6))
Test: single-molecule force spectroscopy (AFM)

With “SARS-CoV-2 Spike receptor binding domain, Wuhan reference strain, monomer (from UniProt P0DTC2 319-541) (domain or fragment)” as the substance, how does the Kd read?
Its Kd is 3.2 nM.

And the koff?
Its koff is 0.00032 s⁻¹.

And the kon?
Its kon is 100000 M⁻¹ s⁻¹.
